# T1: Abp1, P15891
# T1 sequence (P15891 535-592, looked up): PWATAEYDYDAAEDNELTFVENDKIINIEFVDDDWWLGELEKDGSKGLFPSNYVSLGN
# T2: Bbc1, P47068
# T2 sequence (P47068 1-78, looked up): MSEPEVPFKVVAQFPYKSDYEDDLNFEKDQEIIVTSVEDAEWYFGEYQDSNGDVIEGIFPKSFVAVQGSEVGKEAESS
# T3: Boi1, P38041
# T3 sequence (P38041 1-86, looked up): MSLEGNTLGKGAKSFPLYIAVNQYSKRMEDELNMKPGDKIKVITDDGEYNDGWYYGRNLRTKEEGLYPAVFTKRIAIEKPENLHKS
# T4: Boi2, P39969
# T4 sequence (P39969 32-116, looked up): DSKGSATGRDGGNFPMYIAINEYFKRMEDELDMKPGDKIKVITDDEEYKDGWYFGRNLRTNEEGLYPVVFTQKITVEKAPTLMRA
# T5: Bud14, P27637
# T5 sequence (P27637 247-328, looked up): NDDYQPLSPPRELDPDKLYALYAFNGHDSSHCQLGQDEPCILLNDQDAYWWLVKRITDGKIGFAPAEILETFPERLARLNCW
# T6: Bzz1-1, P38822
# T6 sequence (P38822 478-572, looked up): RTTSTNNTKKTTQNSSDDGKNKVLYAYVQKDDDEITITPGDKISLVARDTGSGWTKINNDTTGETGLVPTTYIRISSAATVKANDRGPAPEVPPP
# T7: Bzz1-2, P38822
# T7 sequence (P38822 568-633, looked up): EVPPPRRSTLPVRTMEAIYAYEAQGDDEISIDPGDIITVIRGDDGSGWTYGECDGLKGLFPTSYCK
# T8: Cdc25, P04821
# T8 sequence (P04821 50-136, looked up): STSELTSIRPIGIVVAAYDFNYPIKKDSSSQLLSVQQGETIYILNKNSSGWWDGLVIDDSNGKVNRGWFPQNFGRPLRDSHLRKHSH
# T9: Cyk3, Q07533
# T9 sequence (Q07533 1-83, looked up): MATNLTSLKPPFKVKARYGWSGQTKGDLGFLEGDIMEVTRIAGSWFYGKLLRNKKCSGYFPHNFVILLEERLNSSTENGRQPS
# T10: Fus1, P11710
# T10 sequence (P11710 432-512, looked up): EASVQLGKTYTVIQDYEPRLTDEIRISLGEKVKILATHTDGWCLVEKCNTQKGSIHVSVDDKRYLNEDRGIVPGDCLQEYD
# T11: Hof1, Q05080
# T11 sequence (Q05080 590-669, looked up): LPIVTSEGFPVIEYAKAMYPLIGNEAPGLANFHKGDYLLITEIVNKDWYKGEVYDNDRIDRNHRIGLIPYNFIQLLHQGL
# T12: Hse1, P38753
# T12 sequence (P38753 208-285, looked up): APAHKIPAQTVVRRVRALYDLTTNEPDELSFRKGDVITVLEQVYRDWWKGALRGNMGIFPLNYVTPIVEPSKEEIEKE
# T13: Lsb1, P53281
# T13 sequence (P53281 45-122, looked up): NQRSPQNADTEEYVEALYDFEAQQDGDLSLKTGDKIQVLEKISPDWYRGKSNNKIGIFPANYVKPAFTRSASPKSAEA
# T14: Lsb3, P43603
# T14 sequence (P43603 385-451, looked up): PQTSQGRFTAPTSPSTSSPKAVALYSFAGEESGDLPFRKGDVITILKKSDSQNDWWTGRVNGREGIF
# T15: Lsb4, P32793
# T15 sequence (P32793 402-468, looked up): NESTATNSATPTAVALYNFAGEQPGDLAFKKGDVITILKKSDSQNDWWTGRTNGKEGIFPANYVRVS
# T16: Myo5, Q04439
# T16 sequence (Q04439 1072-1160, looked up): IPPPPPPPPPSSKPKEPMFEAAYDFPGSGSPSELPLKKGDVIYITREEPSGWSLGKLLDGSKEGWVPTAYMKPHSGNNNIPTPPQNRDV
# T17: Nbp2, Q12163
# T17 sequence (Q12163 103-180, looked up): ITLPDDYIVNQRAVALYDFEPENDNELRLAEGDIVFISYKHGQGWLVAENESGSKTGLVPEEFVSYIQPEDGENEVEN
# T18: Pex13, P80667
# T18 sequence (P80667 295-386, looked up): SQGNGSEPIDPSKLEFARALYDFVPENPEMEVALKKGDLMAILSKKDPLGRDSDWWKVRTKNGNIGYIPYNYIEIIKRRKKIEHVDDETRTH
# T19: Pin3, Q06449
# T19 sequence (Q06449 53-122, looked up): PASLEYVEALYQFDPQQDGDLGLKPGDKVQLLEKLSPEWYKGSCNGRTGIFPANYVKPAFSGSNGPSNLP
# T20: Sla1-2, P32790
# T20 sequence (P32790 60-140, looked up): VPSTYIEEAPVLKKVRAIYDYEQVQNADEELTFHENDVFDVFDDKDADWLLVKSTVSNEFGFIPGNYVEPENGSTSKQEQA
# T21: Sla1-3, P32790
# T21 sequence (P32790 344-424, looked up): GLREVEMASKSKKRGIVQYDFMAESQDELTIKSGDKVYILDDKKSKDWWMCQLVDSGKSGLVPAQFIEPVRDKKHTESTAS
# Tests used:
# Assay in all cases: SPOT array
# Abp1, P15891 = molecular target: T1, Abp1, P15891; details: median of control spots 935
# Bbc1, P47068 = molecular target: T2, Bbc1, P47068; details: median of control spots 796
# Bem1-1, P29366 = details: median of control spots 4282
# Chain of Bem1-1, P29366 (P29366 55-141): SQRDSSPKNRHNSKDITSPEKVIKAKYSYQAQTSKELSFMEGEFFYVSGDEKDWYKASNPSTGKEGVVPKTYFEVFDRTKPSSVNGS
# Bem1-2, P29366 = details: median of control spots 4347
# Chain of Bem1-2, P29366 (P29366 139-227): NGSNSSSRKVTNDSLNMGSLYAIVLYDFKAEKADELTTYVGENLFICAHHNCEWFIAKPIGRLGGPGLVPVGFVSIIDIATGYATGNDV
# Boi1, P38041 = molecular target: T3, Boi1, P38041; details: median of control spots 1162
# Boi2, P39969 = molecular target: T4, Boi2, P39969; details: median of control spots 1161
# Bud14, P27637 = molecular target: T5, Bud14, P27637; details: median of control spots 956
# Bzz1-1, P38822 = molecular target: T6, Bzz1-1, P38822; details: median of control spots 4446
# Bzz1-2, P38822 = molecular target: T7, Bzz1-2, P38822; details: median of control spots 4538
# Cdc25, P04821 = molecular target: T8, Cdc25, P04821; details: median of control spots 969
# Cyk3, Q07533 = molecular target: T9, Cyk3, Q07533; details: median of control spots 1451
# Fus1, P11710 = molecular target: T10, Fus1, P11710; details: median of control spots 1200
# GST = details: median of control spots 978
# Hof1, Q05080 = molecular target: T11, Hof1, Q05080; details: median of control spots 4086
# Hse1, P38753 = molecular target: T12, Hse1, P38753; details: median of control spots 1727
# Lsb1, P53281 = molecular target: T13, Lsb1, P53281; details: median of control spots 388
# Lsb3, P43603 = molecular target: T14, Lsb3, P43603; details: median of control spots 406
# Lsb4, P32793 = molecular target: T15, Lsb4, P32793; details: median of control spots 397
# Myo3, P36006 = details: median of control spots 468
# Myo5, Q04439 = molecular target: T16, Myo5, Q04439; details: median of control spots 471
# Nbp2, Q12163 = molecular target: T17, Nbp2, Q12163; details: median of control spots 357
# Pex13, P80667 = molecular target: T18, Pex13, P80667; details: median of control spots 1341
# Pin3, Q06449 = molecular target: T19, Pin3, Q06449; details: median of control spots 2171
# Rvs167, P39743 = details: median of control spots 2707
# Chain of Rvs167, P39743 (P39743 419-482): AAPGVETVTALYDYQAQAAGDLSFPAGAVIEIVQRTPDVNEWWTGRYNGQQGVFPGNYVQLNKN
# Sho1, P40073 = details: median of control spots 1148
# Chain of Sho1, P40073 (P40073 287-367): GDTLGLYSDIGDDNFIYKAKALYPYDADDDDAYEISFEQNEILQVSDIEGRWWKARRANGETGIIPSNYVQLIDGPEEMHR
# Sla1-2, P32790 = molecular target: T20, Sla1-2, P32790; details: median of control spots 712
# Sla1-3, P32790 = molecular target: T21, Sla1-3, P32790; details: median of control spots 5475
Binder,"SPOT intensity (Abp1, P15891)","SPOT intensity (Bbc1, P47068)","SPOT intensity (Bem1-1, P29366)","SPOT intensity (Bem1-2, P29366)","SPOT intensity (Boi1, P38041)","SPOT intensity (Boi2, P39969)","SPOT intensity (Bud14, P27637)","SPOT intensity (Bzz1-1, P38822)","SPOT intensity (Bzz1-2, P38822)","SPOT intensity (Cdc25, P04821)","SPOT intensity (Cyk3, Q07533)","SPOT intensity (Fus1, P11710)",SPOT intensity (GST),"SPOT intensity (Hof1, Q05080)","SPOT intensity (Hse1, P38753)","SPOT intensity (Lsb1, P53281)","SPOT intensity (Lsb3, P43603)","SPOT intensity (Lsb4, P32793)","SPOT intensity (Myo3, P36006)","SPOT intensity (Myo5, Q04439)",other results
NILKRRPLKLEAPSK,92,272,0,0,7,3,19,2,18,297,4,37,0,14,302,2,0,1,4,0,"SPOT intensity (Nbp2, Q12163): 0; SPOT intensity (Pex13, P80667): 2; SPOT intensity (Pin3, Q06449): 1; SPOT intensity (Rvs167, P39743): 0; SPOT intensity (Sho1, P40073): 65; SPOT intensity (Sla1-2, P32790): 0; SPOT intensity (Sla1-3, P32790): 28"
TYNRTAFQIPGDQSI,0,0,0,0,1,0,0,2,0,0,0,0,0,0,0,705,0,0,0,1,"SPOT intensity (Nbp2, Q12163): 0; SPOT intensity (Pex13, P80667): 0; SPOT intensity (Pin3, Q06449): 45; SPOT intensity (Rvs167, P39743): 0; SPOT intensity (Sho1, P40073): 0; SPOT intensity (Sla1-2, P32790): 0; SPOT intensity (Sla1-3, P32790): 1"
NNNKMRPHLPPLSSG,59,0,1,16,3,0,35,1,62,22,0,1,0,1460,24,81,1,22,18,7,"SPOT intensity (Nbp2, Q12163): 12; SPOT intensity (Pex13, P80667): 84; SPOT intensity (Pin3, Q06449): 85; SPOT intensity (Rvs167, P39743): 0; SPOT intensity (Sho1, P40073): 61; SPOT intensity (Sla1-2, P32790): 0; SPOT intensity (Sla1-3, P32790): 0"
DGNEEKPLLPTRPNK,0,43,0,0,0,0,0,0,0,0,0,0,0,23,1,174,493,281,0,0,"SPOT intensity (Nbp2, Q12163): 0; SPOT intensity (Pex13, P80667): 81; SPOT intensity (Pin3, Q06449): 0; SPOT intensity (Rvs167, P39743): 263; SPOT intensity (Sho1, P40073): 0; SPOT intensity (Sla1-2, P32790): 0; SPOT intensity (Sla1-3, P32790): 5"
